Measured values published in the supplement of paper PMC5998384.

Legend:
[1] = tested on: HeLa Kyoto; test: solubility change mitosis vs G1/S (difference of NP-40 vs SDS log2 ratios) (log2 ratio difference); higher = more soluble in mitosis
[2] = tested on: HeLa Kyoto; test: melting temperature (median over replicates), in situ; higher = more thermally stable
[3] = tested on: HeLa Kyoto; test: thermal stability score vs G1/S (z-score of summed log2 fold changes over temperatures); higher = more thermally stable than in G1/S
[4] = tested on: HeLa Kyoto; test: solubility in G1/S (NP-40 vs SDS abundance) (log2 ratio); higher = more soluble; details: cell cycle stage: G1/S
[5] = cell cycle stage: early G1 (4.5 h after nocodazole release)
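Throughout, for melting temperature (median over replicates), in situ: HeLa Kyoto cells synchronized by double thymidine or nocodazole block, proteins quantified by TMT10plex mass spectrometry, three independent biological replicates.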
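Throughout, for solubility change mitosis vs G1/S (difference of NP-40 vs SDS log2 ratios): synchronized HeLa Kyoto cells (double thymidine block for G1/S, nocodazole release for mitosis), protein amounts in NP-40 versus SDS lysates quantified by mass spectrometry, three biological replicates.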
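Throughout, for solubility in G1/S (NP-40 vs SDS abundance): HeLa Kyoto cells arrested at G1/S by double thymidine block, proteins quantified by TMT10plex mass spectrometry in mild NP-40 versus SDS extracts, three biological replicates.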
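Throughout, for thermal stability score vs G1/S (z-score of summed log2 fold changes over temperatures): synchronized HeLa Kyoto cells, proteins quantified by TMT10plex mass spectrometry, three biological replicates, mitosis taken 0.5 h after nocodazole release, G1/S directly after double thymidine block.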

Row | Sequence | solubility change mitosis (log2) [1] | melting temperature ([2]; cell cycle stage: G1/S) [°C] | melting temperature ([2]; cell cycle stage: mitosis) [°C] | thermal stability score [3, 5] | thermal stability score ([3]; cell cycle stage: mitosis) | solubility in G1/S (log2) [4]
1 | MICLVLTIFANLFPAACTGAHERTFLAVKPDGVQRRLVGEIVRRFERKGFKLVALKLVQASEELLREHYAELRERPFYGRLVKYMASGPVVAMVWQGLDVVRTSRALIGATNPADAPPGTIRGDFCIEVGKNLIHGSDSVESARREIALWFRADELLCWEDSAGHWLYE [NME3] | -0.0854 | 55.7 | 56.8 | -1.81 | -2.22 | -0.213
2 | MIDSSKKQQQGFPEILTAGDFEPLKEKECLEGSNQKSLKEVLQLRLQQRRTREQLVDQGIMPPLKSPAAFHEQIKSLERARTENFLKHKIRSRPDRSELVRMHILEETFAEPSLQATQMKLKRARLADDLNEKIAQRPGPMELVEKNILPVDSSVKEAIIGVGKEDYPHTQGDFSFDEDSSDALSPDQPASQESQGSAASPSEPKVSESPSPVTTNTPAQFASVSPTVPEFLKTPPTADQPPPRPAAPVLPTNTVSSAKPGPALVKQSHPKNPNDKHRSKKCKDPKPRVKKLKYHQYIPPDQKGEKNEPQMDSNYARLLQQQQLFLQLQILSQQKQHYNYQTILPAPFKPLNDKNSNSGNSALNNATPNTPRQNTSTPVRKPGPLPSSLDDLKVSELKTELKLRGLPVSGTKPDLIERLKPYQEVNSSGLAAGGIVAVSSSAIVTSNPEVTVALPVTTLHNTVTSSVSTLKAELPPTGTSNATRVENVHSPLPISPSPSEQSSLSTDDTNMADTFTEIMTMMSPSQFLSSSPLRMTNNEDSLSPTSSTLSNLELDAAEKDRKLQEKEKQIEELKRKLEQEQKLVEVLKMQLEVEKRGQQQRPLEAQPSAPGHSVKSDQKHGSLGSSIKDEASLPDCSSSRQPIPVASHAVGQPVSTGGQTLVAKKAVVIKQEVPVGQAEQQSVVSQFYVSSQGQPPPAVVAQPQALLTTQTAQLLLPVSIQGSSVTSVQLPVGSLKLQTSPQAGMQTQPQIATAAQIPTAALASGLAPTVPQTQDTFPQHVLSQPQQVRKVFTNSASSNTVLPYQRHPAPAVQQPFINKASNSVLQSRNAPLPSLQNGPNTPNKPSSPPPPQQFVVQHSLFGSPVAKTKDPPRYEEAIKQTRSTQAPLPEISNAHSQQMDDLFDILIKSGEISLPIKEEPSPISKMRPVTASITTMPVNTVVSRPPPQVQMAPPVSLEPMGSLSASLENQLEAFLDGTLPSANEIPPLQSSSEDREPFSLIEDLQNDLLSHSGMLDHSHSPMETSETQFAAGTPCLSLDLSDSNLDNMEWLDITMPNSSSGLTPLSTTAPSMFSADFLDPQDLPLPWD [MKL2] | -0.304 | 52.5 | 53 | 1.45 | 3.81 | 0.208
3 | MIGCGACEPKVKMAGGQAAAALPTWKMAARRSLSARGRGILQAAAGRLLPLLLLSCCCGAGGCAAVGENEETVIIGLRLEDTNDVSFMEGGALRVSERTRVKLRVYGQNINNETWSRIAFTEHERRRHSPGERGLGGPAPPEPDSGPQRCGIRTSDIIILPHIILNRRTSGIIEIEIKPLRKMEKSKSYYLCTSLSTPALGAGGSGSTGGAVGGKGGSGVAGLPPPPWAETTWIYHDGEDTKMIVGEEKKFLLPFWLQVIFISLLLCLSGMFSGLNLGLMALDPMELRIVQNCGTEKEKNYAKRIEPVRRQGNYLLCSLLLGNVLVNTTLTILLDDIAGSGLVAVVVSTIGIVIFGEIVPQAICSRHGLAVGANTIFLTKFFMMMTFPASYPVSKLLDCVLGQEIGTVYNREKLLEMLRVTDPYNDLVKEELNIIQGALELRTKTVEDVMTPLRDCFMITGEAILDFNTMSEIMESGYTRIPVFEGERSNIVDLLFVKDLAFVDPDDCTPLKTITKFYNHPLHFVFNDTKLDAMLEEFKKGKSHLAIVQRVNNEGEGDPFYEVLGIVTLEDVIEEIIKSEILDETDLYTDNRTKKKVAHRERKQDFSAFKQTDSEMKVKISPQLLLAMHRFLATEVEAFSPSQMSEKILLRLLKHPNVIQELKYDEKNKKAPEYYLYQRNKPVDYFVLILQGKVEVEAGKEGMKFEASAFSYYGVMALTASPVPLSLSRTFVVSRTELLAAGSPGENKSPPRPCGLNHSDSLSRSDRIDAVTPTLGSSNNQLNSSLLQVYIPDYSVRALSDLQFVKISRQQYQNALMASRMDKTPQSSDSENTKIELTLTELHDGLPDETANLLNEQNCVTHSKANHSLHNEGAI [CNNM2] | 0.346 |  | 51.1 | -1.21 | -1.62 | -0.386
4 | MIGGLFIYNHKGEVLISRVYRDDIGRNAVDAFRVNVIHARQQVRSPVTNIARTSFFHVKRSNIWLAAVTKQNVNAAMVFEFLYKMCDVMAAYFGKISEENIKNNFVLIYELLDEILDFGYPQNSETGALKTFITQQGIKSQHQTKEEQSQITSQVTGQIGWRREGIKYRRNELFLDVLESVNLLMSPQGQVLSAHVSGRVVMKSYLSGMPECKFGMNDKIVIEKQGKGTADETSKSGKQSIAIDDCTFHQCVRLSKFDSERSISFIPPDGEFELMRYRTTKDIILPFRVIPLVREVGRTKLEVKVVIKSNFKPSLLAQKIEVRIPTPLNTSGVQVICMKGKAKYKASENAIVWKIKRMAGMKESQISAEIELLPTNDKKKWARPPISMNFEVPFAPSGLKVRYLKVFEPKLNYSDHDVIKWVRYIGRSGIYETRC [AP2M1] | 0.00223 | 52.3 | 51.6 | -2.25 | -0.263 | -0.387
